Experimental data from publication PMC3080137, “The Anti-Apoptotic Bcl-xL Protein, a New Piece in the Puzzle of Cytochrome C Interactome” (PLoS ONE, 2011).

Biological target: human Bcl-xL (residues 1-209, lacking the C-terminal hydrophobic tail) (human, UniProt Q07817-1 1-209, 15N-labelled where it was the observed protein)
Experiment: NMR titration; 15N-Bcl-xL titrated with unlabeled cytochrome c up to Bcl-xL:cytochrome c 1:10, 1H-15N HSQC; Kd from weighted average chemical shift variations; 300 K; 50 mM sodium phosphate pH 7.3, 150 mM NaCl, 1 mM DTT, 10% D2O
Conditions: both partners purified

Sequence of human Bcl-xL (residues 1-209, lacking the C-terminal hydrophobic tail) (Q07817 1-209): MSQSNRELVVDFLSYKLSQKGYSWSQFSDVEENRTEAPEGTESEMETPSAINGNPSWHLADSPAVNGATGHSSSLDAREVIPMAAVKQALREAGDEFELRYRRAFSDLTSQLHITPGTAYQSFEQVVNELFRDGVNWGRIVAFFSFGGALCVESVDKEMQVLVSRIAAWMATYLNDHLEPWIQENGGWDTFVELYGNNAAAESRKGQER

- Kd: 1000 to 3000 µM
B1: human cytochrome c (natural protein)
chain: not shown
modifications: heme, iron(II) (reduced) form; 15N-labelled where it was the observed protein
notes: cytochrome c, human, full length; also called reduced cytochrome c; source: expressed and purified as reported in the literature [36]; unlabeled and 15N-labeled form
